In patent publication US20150197579A1 (MorphoSys, published 2015):

How the values were obtained:
Adalimumab/TNF-α complex = Adalimumab/TNF-α complex (human, UniProt P01375 77-233); assay: real time, label free interaction analysis, Attana A200, immobilized Adalimumab-TNF-α complex, monovalent
BSA = BSA (bovine, UniProt P02769); assay: ELISA: antigen coated at 5 µg/mL, Fab-FH at 2 µg/mL, HRP-labeled anti-His antibody, QuantaBlu
Procedure: (§1) 5 μg/mL of each of the antigens were coated on a microtiter plate over night. […] Detection was performed using an HRP-labeled anti-His antibody and QuantaBlu fluorogenic peroxidase substrate.
(§2) Therefore 5 μg/mL of each of the antigens were coated on a microtiter plate over night. […] Detection was performed using an HRP-labeled anti-His antibody and QuantaBlu fluorogenic peroxidase substrate.

Bevacizumab = biological target: T1, Bevacizumab; assay: as above
T1 construct: not shown: the constant regions
T1 sequence (VH, as listed by the source): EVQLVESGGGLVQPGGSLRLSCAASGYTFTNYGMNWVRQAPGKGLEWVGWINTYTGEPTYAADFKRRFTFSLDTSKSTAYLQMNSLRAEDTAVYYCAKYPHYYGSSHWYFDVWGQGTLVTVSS
Procedure: as §1, §2

Ustekinumab [1] = biological target: T2, Ustekinumab; assay: as above
T2 construct: not shown: the constant regions
T2 sequence (VH, as listed by the source): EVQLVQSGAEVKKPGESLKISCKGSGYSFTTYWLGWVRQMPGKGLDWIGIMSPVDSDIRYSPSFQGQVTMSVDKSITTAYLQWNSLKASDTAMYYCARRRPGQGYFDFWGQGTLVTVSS
Procedure: as §1, §2

Adalimumab [2] = biological target: T3, Adalimumab; assay: as above
T3 construct: not shown: the constant regions
Procedure: as §1, §2

Rituximab [3] = biological target: T4, Rituximab; assay: as above
T4 construct: Control antigen in the screening ELISA; also called Rituximab (IgG1kappa); not shown: the constant regions
T4 sequence (VH, as listed by the source, chain 1 of 2): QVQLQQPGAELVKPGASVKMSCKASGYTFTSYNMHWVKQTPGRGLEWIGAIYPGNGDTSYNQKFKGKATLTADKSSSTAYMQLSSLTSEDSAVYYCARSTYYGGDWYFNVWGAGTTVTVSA
T4 sequence (VL, as listed by the source, chain 2 of 2): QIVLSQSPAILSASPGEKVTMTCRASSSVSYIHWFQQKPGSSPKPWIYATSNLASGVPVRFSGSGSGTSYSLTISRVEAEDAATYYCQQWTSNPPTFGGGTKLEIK
Procedure: as §1, §2

Ustekinumab [4] = biological target: T2, Ustekinumab; assay: ELISA: antigen coated at 5 µg/mL, HRP-conjugated AdaTNF#5-hIgG1 at 2 µg/mL in HiSpec buffer, QuantaBlu
Procedure: (§3) Antigens were coated at 5 μg/mL on a microtiter plate over night. […] Detection was performed using the QuantaBlu® fluorogenic peroxidase substrate. […] (FIG. 3)

Adalimumab [5] = biological target: T3, Adalimumab; assay: as above
Procedure: as §3

Rituximab [6] = biological target: T4, Rituximab; assay: as above
Procedure: as §3

BSA, sequence (P02769 25-607 limits assumed): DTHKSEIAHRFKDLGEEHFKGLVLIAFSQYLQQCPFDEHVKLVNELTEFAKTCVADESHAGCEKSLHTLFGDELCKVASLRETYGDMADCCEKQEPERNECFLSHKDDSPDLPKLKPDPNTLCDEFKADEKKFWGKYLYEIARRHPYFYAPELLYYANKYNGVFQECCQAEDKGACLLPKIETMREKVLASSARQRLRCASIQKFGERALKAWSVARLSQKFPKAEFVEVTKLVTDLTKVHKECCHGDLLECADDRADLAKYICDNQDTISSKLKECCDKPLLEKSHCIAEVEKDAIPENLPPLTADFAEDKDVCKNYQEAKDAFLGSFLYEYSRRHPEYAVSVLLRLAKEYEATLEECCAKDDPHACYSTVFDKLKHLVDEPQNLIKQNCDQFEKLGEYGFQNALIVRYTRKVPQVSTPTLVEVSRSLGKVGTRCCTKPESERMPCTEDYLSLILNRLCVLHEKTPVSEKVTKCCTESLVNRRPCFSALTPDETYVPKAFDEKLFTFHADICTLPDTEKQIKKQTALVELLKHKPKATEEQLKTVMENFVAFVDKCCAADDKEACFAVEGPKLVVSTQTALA
Adalimumab/TNF-α complex, sequence (P01375 77-233, one chain of several): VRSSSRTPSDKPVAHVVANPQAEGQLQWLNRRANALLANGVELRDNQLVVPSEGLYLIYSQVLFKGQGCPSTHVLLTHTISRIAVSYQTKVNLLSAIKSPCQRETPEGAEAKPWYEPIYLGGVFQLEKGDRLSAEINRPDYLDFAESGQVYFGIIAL

Row | Kd (Adalimumab/TNF-α complex) | binding result (BSA) | binding result (Bevacizumab) | binding result (Ustekinumab [1]) | binding result (Adalimumab [2]) | binding result (Rituximab [3]) | binding result (Ustekinumab [4]) | binding result (Adalimumab [5]) | binding result (Rituximab [6]) | Binder
1 | 67 nM | no binding (tested: 2 µg/mL) | no binding (tested: 2 µg/mL) | no binding (tested: 2 µg/mL) | no binding (tested: 2 µg/mL) | no binding (tested: 2 µg/mL) |  |  |  | AdaTNF#5 (Fab, V domains shown, HuCAL Fab in Fab-FH format, detected by an anti-His antibody; also called AdaTNb/F#5; anti-Adalimumab/TNF-α antibody in Fab-FH format) VH: QVQLVQSGAEVKKPGSSVKVSCKASGGTFSTNAISWVRQAPGQGLEWMGGINPHLGHADYAQKFQGRVTITADESTSTAYMELSSLRSEDTAVYYCARGWYYIGSNPSMYPNYFDPWGQGTLVTVSS VL: DIQMTQSPSSLSASVGDRVTITCRASQTISSYLNWYQQKPGKAPKLLIYTASNLQSGVPSRFSGSGSGTDFTLTISSLQPEDFATYYCQQVLHLPHTFGQGTKVEIKR
2 |  |  |  |  |  |  | no binding (tested: 2 µg/mL) | no binding (tested: 2 µg/mL) | no binding (tested: 2 µg/mL) | AdaTNF#5-hIgG1 (antibody, V domains shown, antibody conjugated to HRP, site not stated, AdaTNF#5 converted into full length (bivalent) human IgG1, expressed in a human cell line, conjugated to HRP; also called anti-Adalimumab/TNF-α hIgG1 antibody AdaTNF#5 (conjugated to HRP); HRP-conjugated AdaTNF#5-hIgG1) VH: QVQLVQSGAEVKKPGSSVKVSCKASGGTFSTNAISWVRQAPGQGLEWMGGINPHLGHADYAQKFQGRVTITADESTSTAYMELSSLRSEDTAVYYCARGWYYIGSNPSMYPNYFDPWGQGTLVTVSS VL: DIQMTQSPSSLSASVGDRVTITCRASQTISSYLNWYQQKPGKAPKLLIYTASNLQSGVPSRFSGSGSGTDFTLTISSLQPEDFATYYCQQVLHLPHTFGQGTKVEIKR
3 |  | no binding (tested: 2 µg/mL) | no binding (tested: 2 µg/mL) | no binding (tested: 2 µg/mL) | no binding (tested: 2 µg/mL) | no binding (tested: 2 µg/mL) |  |  |  | AdaTNF#1 (Fab, V domains shown, HuCAL Fab in Fab-FH format, detected by an anti-His antibody; also called anti-Adalimumab/TNF-α antibody in Fab-FH format) VH: QVQLVQSGAEVKKPGSSVKVSCKASGGTFSTYAISWVRQAPGQGLEWMGGIIPIFGTANYAQKFQGRVTITADESTSTAYMELSSLRSEDTAVYYCARDYFSSIGWVVYYGPMDYWGQGTLVTVSS VL: not shown
